Experimental data taken from US20240400677A1 (ELECTRA THERAPEUTICS, published 2024).

Columns and labels:
[1] = target: T1, human SIRPγ on primary human T-cells (human, UniProt Q9P1W8 29-387); test: flow cytometry, dye-conjugated antibody, human whole blood (3 donors)
T1 construct: endogenous SIRPγ of donor T-cells; also called SIRPγ on T-cells
Experimental: Selected antibodies and an isotype control were tested for binding to human T-cells, B-cells, NK cells, monocytes, and granulocytes. […] Up to 50 μg/mL fluorescent dye-conjugated antibodies or isotype controls were incubated with whole blood from three normal donors. T-cells were identified as the CD14−, CD20−, SSClow, and CD3+ population or further identified to be CD4+ or CD8+ populations. B-cells were identified as the CD14−, SSClow, and CD20+ population. NK cells were identified as CD14−, CD20−, CD3−, and CD56+. Monocytes were identified as the SSClow and CD14+ population. Granulocytes were identified as the CD14−, CD20−, CD3−, SSChigh population. Graphs depict the median fluorescence intensity (MFI) of each population.

[2] = target: T2, cynomolgus monkey SIRPγ-His monomer protein (cynomolgus monkey, UniProt Q9P1W8 29-359 (human entry), limits assumed); test: BLI Octet, antibody on AHC, SIRP-His monomer, 1:1 model
T2 construct: also called Cyno SIRPγ; Cyno SIRPγ-His
T2 chain: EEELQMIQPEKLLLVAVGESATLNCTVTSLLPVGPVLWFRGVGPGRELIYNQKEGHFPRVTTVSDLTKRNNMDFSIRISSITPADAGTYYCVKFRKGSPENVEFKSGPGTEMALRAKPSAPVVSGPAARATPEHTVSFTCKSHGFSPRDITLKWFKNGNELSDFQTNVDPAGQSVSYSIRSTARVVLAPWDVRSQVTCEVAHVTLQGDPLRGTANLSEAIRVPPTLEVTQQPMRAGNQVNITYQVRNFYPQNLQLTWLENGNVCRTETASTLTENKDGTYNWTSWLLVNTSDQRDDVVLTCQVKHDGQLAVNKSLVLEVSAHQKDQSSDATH
Experimental: (§1) Select antibodies from Example 1 of the disclosure were tested for their affinities to human SIRPγ, cynomolgus monkey SIRPγ, human SIRPαV1, human SIRPαV2, and human SIRPβ1 using a biolayer interferometry (BLI) Octet system (Pall ForteBio). Each antibody was immobilized on a biosensor tip by an anti-human IgG capture (AHC). […] The biosensors were then exposed to wash buffer to measure off-rate kinetics. The resulting kinetic data were analyzed and fitted using a 1:1 binding model.

[3] = target: T3, human SIRPγ-His monomer protein (human, UniProt Q9P1W8 29-360); test: as above
T3 construct: also called hSIRPγ
T3 sequence (Q9P1W8 29-360 limits assumed): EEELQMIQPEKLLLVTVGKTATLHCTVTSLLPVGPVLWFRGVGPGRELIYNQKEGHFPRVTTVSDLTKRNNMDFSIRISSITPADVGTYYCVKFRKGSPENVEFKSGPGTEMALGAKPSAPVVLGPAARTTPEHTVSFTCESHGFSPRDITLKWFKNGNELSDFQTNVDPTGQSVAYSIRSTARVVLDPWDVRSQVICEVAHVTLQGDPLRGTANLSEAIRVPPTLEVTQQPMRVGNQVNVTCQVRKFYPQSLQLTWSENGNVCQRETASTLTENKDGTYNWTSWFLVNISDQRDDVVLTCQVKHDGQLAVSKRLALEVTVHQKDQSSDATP
Experimental: as §1

[4] = target: T4, human SIRPβ1-His monomer protein (human, UniProt O00241 30-371, limits assumed); test: BLI
T4 sequence (O00241 30-371 limits assumed): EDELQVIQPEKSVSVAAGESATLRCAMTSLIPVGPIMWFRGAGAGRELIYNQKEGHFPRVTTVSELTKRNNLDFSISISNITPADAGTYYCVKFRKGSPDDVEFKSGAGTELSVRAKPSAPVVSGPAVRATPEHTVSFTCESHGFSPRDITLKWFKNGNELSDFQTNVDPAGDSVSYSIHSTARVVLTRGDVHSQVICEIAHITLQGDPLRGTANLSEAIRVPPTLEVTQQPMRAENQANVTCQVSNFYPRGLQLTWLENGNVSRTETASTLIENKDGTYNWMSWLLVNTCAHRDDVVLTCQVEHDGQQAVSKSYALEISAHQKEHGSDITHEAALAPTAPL
Experimental: as §1

[5] = target: T5, extracellular binding domain of human SIRPγ (plate-coated) (human, UniProt Q9P1W8 29-360); test: ELISA, coated SIRP ECD (2 µg/mL), anti-human IgG, luminescence
T5 construct: also called hSIRPγ
T5 sequence (Q9P1W8 29-360 limits assumed): as the sequence (Q9P1W8 29-360 limits assumed) above
In short: (§2)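 Plate-coated SIRP extracellular domain (2 μg/mL), blocked, then exposed to purified antibodies in titration, after transient expression in Expi293F cells for 5 days and Protein A purification. Bound antibody is detected with anti-human IgG and a chemiluminescent substrate, and reported as relative luminescence units.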

[6] = target: T6, human SIRPγ on stably transfected CHO cells (human, UniProt Q9P1W8 29-387); test: flow cytometry, myc-scFv PPE
T6 construct: also called Human SIRPγ CHO
T6 sequence (Q9P1W8 29-387 limits assumed): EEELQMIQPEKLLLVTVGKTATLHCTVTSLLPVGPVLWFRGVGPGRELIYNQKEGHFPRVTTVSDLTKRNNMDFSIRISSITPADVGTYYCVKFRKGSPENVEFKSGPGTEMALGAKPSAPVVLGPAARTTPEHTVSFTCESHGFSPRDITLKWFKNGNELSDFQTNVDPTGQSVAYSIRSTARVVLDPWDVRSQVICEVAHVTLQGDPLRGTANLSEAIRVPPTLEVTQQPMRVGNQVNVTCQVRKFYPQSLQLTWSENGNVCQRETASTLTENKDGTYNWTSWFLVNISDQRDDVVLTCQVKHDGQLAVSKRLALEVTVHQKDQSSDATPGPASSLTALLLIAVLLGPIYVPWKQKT
In short: (§3)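 Antibodies are titrated onto CHO cells stably expressing the SIRP protein, then detected with fluorescent anti-human IgG. MFI is plotted against concentration. Crude PPE containing myc-tagged scFv is tested against the same lines and parental CHO-K1, with fold change <2.0 taken as non-binding.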

[7] = target: T7, cynomolgus monkey SIRPγ on CHO cells (cynomolgus monkey, UniProt Q9P1W8 29-386 (human entry)); test: flow cytometry, myc-scFv PPE
T7 construct: also called Cyno SIRPγ CHO
T7 chain: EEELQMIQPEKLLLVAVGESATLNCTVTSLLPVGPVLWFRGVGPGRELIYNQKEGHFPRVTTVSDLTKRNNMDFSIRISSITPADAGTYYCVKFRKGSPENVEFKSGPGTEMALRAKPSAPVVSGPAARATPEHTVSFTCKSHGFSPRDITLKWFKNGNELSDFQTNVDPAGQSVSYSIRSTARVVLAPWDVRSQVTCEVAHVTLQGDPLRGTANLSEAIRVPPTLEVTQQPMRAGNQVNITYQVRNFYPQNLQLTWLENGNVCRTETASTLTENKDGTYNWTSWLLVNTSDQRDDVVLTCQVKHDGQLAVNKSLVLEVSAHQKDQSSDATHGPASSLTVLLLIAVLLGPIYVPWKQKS
In short: as §3

[8] = target: T4, human SIRPβ1-His monomer protein; test: BLI Octet, V5-scFv PPE captured, SIRP-His 500 nM
[9] = target: T3, human SIRPγ-His monomer protein; test: BLI Octet, V5-scFv PPE captured, SIRP-His 500 nM
[10] = target: T2, cynomolgus monkey SIRPγ-His monomer …; test: BLI Octet, captured scFv PPE, cyno SIRP
In short: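 Bio-layer interferometry used biotinylated anti-V5 on streptavidin sensors to capture V5-tagged scFv from crude periplasmic extract. Monomeric His-tagged SIRP protein at 500 nM was associated, then dissociated in wash buffer. Off-rate (kdis) was analyzed from the kinetic traces.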

[11] = target: T8, cynomolgus monkey SIRPα on CHO cells (cynomolgus monkey, UniProt A0A2K5VYQ9 31-507); test: flow cytometry, myc-scFv PPE
T8 construct: whole, on cells; also called Cyno SIRPα CHO
T8 sequence: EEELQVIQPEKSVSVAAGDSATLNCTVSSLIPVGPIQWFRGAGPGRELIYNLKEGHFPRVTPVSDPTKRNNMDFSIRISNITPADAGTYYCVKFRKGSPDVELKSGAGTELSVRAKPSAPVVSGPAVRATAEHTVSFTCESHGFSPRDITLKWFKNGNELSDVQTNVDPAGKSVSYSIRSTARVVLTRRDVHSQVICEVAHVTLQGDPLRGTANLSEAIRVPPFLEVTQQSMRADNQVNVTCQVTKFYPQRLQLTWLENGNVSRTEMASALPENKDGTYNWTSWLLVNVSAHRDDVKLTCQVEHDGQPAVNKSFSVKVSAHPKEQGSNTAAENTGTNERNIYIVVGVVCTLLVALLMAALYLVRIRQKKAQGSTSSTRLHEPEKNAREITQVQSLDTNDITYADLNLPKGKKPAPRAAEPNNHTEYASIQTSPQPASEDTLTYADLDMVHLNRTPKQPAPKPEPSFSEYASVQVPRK
In short: as §3

[12] = target: T9, human SIRPβ1 on CHO cells (co-transfected with DAP12) (human, UniProt O00241 30-398); test: flow cytometry
T9 construct: whole, on cells; co-transfected with DAP12; also called Human SIRPβ1 CHO
T9 sequence (O00241 30-398): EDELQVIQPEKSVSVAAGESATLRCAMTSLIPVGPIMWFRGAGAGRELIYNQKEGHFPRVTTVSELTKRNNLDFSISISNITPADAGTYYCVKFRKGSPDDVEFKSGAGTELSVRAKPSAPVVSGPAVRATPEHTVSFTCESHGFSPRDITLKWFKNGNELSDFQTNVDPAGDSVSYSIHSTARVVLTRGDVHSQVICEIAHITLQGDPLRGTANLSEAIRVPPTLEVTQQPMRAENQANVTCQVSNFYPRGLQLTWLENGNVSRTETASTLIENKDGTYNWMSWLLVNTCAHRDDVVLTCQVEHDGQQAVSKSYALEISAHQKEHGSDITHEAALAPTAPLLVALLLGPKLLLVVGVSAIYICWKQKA

[13] = target: T8, cynomolgus monkey SIRPα on CHO cells; test: flow cytometry
[14] = target: T10, human SIRPα V2-His monomer protein (human, UniProt P78324 31-370, limits assumed); test: BLI Octet, V5-scFv PPE captured, SIRP-His 500 nM
T10 construct: the V2 allele differs from the canonical UniProt P78324 entry
T10 sequence (P78324 other isoform, or with tags, fused parts or gaps limits assumed): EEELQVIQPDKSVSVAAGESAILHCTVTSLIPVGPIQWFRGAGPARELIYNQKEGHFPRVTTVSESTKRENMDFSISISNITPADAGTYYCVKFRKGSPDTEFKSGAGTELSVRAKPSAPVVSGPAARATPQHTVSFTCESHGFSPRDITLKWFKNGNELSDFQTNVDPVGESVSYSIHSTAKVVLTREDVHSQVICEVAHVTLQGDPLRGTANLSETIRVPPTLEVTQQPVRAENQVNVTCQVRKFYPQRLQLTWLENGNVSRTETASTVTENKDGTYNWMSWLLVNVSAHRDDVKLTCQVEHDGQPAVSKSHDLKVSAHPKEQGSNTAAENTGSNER

[15] = target: T10, human SIRPα V2-His monomer protein; test: BLI
Experimental: as §1

[16] = target: T11, Human SIRPαV2 (plate-coated extracellular domain) (Homo sapiens, UniProt P78324); test: ELISA, coated SIRP ECD (2 µg/mL), anti-human IgG, luminescence
T11 construct: extracellular domain
T11 sequence (P78324 other isoform, or with tags, fused parts or gaps limits assumed): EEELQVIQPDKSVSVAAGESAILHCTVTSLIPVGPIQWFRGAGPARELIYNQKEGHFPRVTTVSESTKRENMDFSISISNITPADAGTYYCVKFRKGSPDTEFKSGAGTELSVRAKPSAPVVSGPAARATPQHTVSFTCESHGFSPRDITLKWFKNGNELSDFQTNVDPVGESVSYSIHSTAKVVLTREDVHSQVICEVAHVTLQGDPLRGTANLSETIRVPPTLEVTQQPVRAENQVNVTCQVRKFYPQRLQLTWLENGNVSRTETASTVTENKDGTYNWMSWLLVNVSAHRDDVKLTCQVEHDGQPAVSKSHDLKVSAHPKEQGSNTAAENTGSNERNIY
In short: as §2

T1 sequence (Q9P1W8 29-387 limits assumed): as the sequence (Q9P1W8 29-387 limits assumed) above

B1: Antibody 8 (antibody, V domains shown)
VH: QVQLVQSGAEVKKPGASVKVSCKASGYTFTGYHIHWVRQAPGQGLEWMGWINPNSGGTNYAQKFQGRVTMTRDTSINTAYMELNRLRSDDTAVFYCARERVGYCSRPSCLDDLNIWGQGTMVTVSS
VL: DIQMTQSPSTLSASVGDRVTITCRASQSISSWLAWYQQKPGKAPKLLIYKASSLETGVPSRFSGSGSGTEFTLTISSLQPDDFATYYCQQYDSYYTFGQGTKLEIK
In the case of B1, the “EC50 (read off the curve)” value [1] is reported as ~0.1 µg/mL, the Kd [2] is reported as 8.01 nM and the Kd [3] is reported as 2.07 nM. The binding result [4] was “no binding (tested: 300 nM)” and the “EC50 (read off the curve)” value [5] was ~0.04 µg/mL.

B2: Antibody 22 (scFv, V domains shown)
VH: QVQLVQSGAEVKKPGASVKVSCKASGYTFTSHDINWVRQAPGQGLEWMGISNPSGGSTYYAQKFQGRVTMTRDTSTSTVYMELSSLRSEDTAVYYCASSRRYWNGAFDYWGQGTLVTVSS
VL: not shown
notes: scFv in crude PPE, V5/myc-tagged
B2 was tested, and the “MFI fold change over parental CHO” value [6] was 3.17 fold, the “MFI fold change over parental CHO” value [7] was 8.24 fold and the kdis [8] was < 0.001 s⁻¹. For the same binder, the kdis [9] was < 0.001 s⁻¹ and the binding result [10] was “binds”.

B3: Antibody 19 (scFv, V domains shown)
VH: QVQLVQSGAEVKKPGASVKVSCKASGYTFTAYYMHWVRQAPGQGLEWMGIINPSGGSTSYAQKFQGRVTMTRDTSTSTVYMELSSLRSEDTAVYYCARDSGWYAPGYYYGMDVWGQGTTVTVSS
VL: DIQMTQSPSSLSASVGDRVTITCRASESISHWLAWYQQKPGKAPKLLIYGASTLQSGVPSRFSGSGSGTDFTLTISSLQPEDFATYYCQQSYTPPLTFGGGTKVEIK
notes: as for B2
For B3, the “MFI fold change over parental CHO” value [11] was 2.01 fold, the “MFI fold change over parental CHO” value [6] was 43.3 fold and the “MFI fold change over parental CHO” value [7] was 36.6 fold. The binding result [12] was “no binding (tested: fold change <2.0)” and the kdis [9] was < 0.001 s⁻¹.

B4: Antibody 28 (scFv, V domains shown)
VH: QVQLVQSGAEVKKPGASVKVSCKASGYTFTSYNIHWVRQAPGQGLEWMGWISAYNGNTNYAQKLQGRVTMTRDTSTSTVYMELSSLRSEDTAVYYCALDGGQLGVAFDIWGQGTMVTVSS
VL: DIQMTQSPSSLSASVGDRVTITCRASQGISNWLAWYQQKPGKAPKLLIYDASNLDAGVPSRFSGSGSGTDFTLTISSLQPEDFATYYCQQANSLPLTFGGGTKVEIK
notes: as for B2
With B4 the “MFI fold change over parental CHO” value [6] was 46.5 fold, the “MFI fold change over parental CHO” value [7] was 24 fold and the binding result [13] was “no binding (tested: fold change <2.0)”. For the same binder, the kdis [14] was 0.001 to 0.01 s⁻¹, the kdis [8] was < 0.001 s⁻¹ and the kdis [9] was 0.001 to 0.01 s⁻¹. B4: binds [10].

B5: Antibody 7 (antibody, V domains shown)
VH: QVQLVESGGGVVQPGRSLRLSCAASGFTFSNYGMHWVRQAPGKGLEWVAFIWYDGSNKNYADSVKGRFTISRDNPTNTLYLQMNSLRAEDTAVYYCAREEQWLDYWGQGTLVTVSS
VL: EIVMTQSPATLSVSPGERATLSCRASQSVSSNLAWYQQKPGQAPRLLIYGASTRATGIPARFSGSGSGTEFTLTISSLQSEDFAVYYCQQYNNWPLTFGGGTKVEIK
In the case of B5, the Kd [2] is reported as 2200 nM, the Kd [3] is reported as 296 nM and the binding result [15] is reported as “no binding (tested: 300 nM)”. The binding result [4] was “no binding (tested: 300 nM)”, the “EC50 (read off the curve)” value [5] was ~0.3 µg/mL and the binding result [16] was “no binding (tested: about 40 µg/mL)”.

B6: Antibody 4 (antibody, V domains shown)
VH: QVQLVESGGGVVQPGRSLRLSCAASGFTFSNYGMHWVRQAPGKGLEWVAFIWYDGSNKNYADSVKGRFTISRDNPTNTLYLQMNSLRAEDTAVYYCAREEQWLDYWGQGTLVTVSS
VL: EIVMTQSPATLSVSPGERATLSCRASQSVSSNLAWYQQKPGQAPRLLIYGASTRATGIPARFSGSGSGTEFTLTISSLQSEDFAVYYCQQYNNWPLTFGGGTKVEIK
For B6, the “EC50 (read off the curve)” value [5] was ~0.1 µg/mL and the binding result [16] was “no binding (tested: about 40 µg/mL)”.

B7: Antibody 3 (antibody, V domains shown)
VH: QVQLVESGGGVVQPGRSLRLSCAASGFTFSNYGMHWVRQAPGKGLEWVAFIWYDGSNKNYADSVKGRFTISRDNPTNTLYLQMNSLRAEDTAVYYCAREEQWLDYWGQGTLVTVSS
VL: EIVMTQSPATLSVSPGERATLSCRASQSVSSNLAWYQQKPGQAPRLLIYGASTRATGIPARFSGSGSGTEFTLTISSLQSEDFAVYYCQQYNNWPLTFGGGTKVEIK
With B7 the “EC50 (read off the curve)” value [5] was ~0.1 µg/mL and the binding result [16] was “no binding (tested: about 40 µg/mL)”.
